Data: patent US20190135908A1 (Novartis, published 2019)

T1: GDF15 mutant Q247R (wrist region), albumin fusion (human, UniProt Q99988 195-308)
T1 construct: not shown: albumin fusion partner
T1 chain: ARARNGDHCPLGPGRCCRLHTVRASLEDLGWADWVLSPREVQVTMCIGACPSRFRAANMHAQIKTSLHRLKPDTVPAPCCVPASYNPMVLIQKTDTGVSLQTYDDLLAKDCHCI

T2: GDF15 mutant M253R (wrist region), albumin fusion (human, UniProt Q99988 195-308)
T2 construct: not shown: albumin fusion partner
T2 chain: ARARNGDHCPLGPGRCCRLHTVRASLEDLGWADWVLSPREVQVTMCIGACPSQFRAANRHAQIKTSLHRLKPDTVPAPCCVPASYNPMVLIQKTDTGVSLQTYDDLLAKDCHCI

T3: Mouse His-GDF15: HIS-tagged mouse GDF15 (mouse, UniProt Q9Z0J7 189-303)
T3 construct: not shown: His tag
T3 sequence (looked up): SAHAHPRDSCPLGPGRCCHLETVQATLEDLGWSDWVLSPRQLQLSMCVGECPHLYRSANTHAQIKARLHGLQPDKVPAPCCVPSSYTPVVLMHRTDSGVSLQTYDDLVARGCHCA

T4: Cyno His-GDF15: HIS-tagged cyno GDF15 (cynomolgus, UniProt G7PWZ3 197-308, limits assumed)
T4 construct: not shown: His tag
T4 sequence (looked up): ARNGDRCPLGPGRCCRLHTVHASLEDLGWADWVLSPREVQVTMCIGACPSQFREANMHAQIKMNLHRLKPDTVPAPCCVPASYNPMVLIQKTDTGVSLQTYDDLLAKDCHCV

T5: Rat GDF15 HIS: HIS-tagged rat GDF15 (rat, UniProt Q9Z0J6 189-303, limits assumed)
T5 construct: also called Rat His-GDF15; not shown: His tag
T5 sequence (looked up): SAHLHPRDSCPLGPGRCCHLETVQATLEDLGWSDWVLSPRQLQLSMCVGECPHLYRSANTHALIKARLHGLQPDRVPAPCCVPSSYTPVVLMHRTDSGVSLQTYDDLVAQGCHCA

T6: Human GDF15 native: naturally produced human GDF15 purchased from Peprotech (human, UniProt Q99988 195-308)
T6 construct: Bought protein
T6 sequence: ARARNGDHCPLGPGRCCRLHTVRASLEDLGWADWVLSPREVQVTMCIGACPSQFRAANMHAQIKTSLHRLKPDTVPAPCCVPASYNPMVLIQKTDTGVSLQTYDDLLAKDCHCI

T7: GDF15 mutant S278R (back-of-hand), albumin fusion (human, UniProt Q99988 195-308)
T7 construct: not shown: albumin fusion partner
T7 chain: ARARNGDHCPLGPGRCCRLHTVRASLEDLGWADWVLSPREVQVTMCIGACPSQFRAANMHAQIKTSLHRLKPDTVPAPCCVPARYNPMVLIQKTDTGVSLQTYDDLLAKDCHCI

T8: GDF15 mutant W228R (wrist region), albumin fusion (human, UniProt Q99988 195-308)
T8 construct: not shown: albumin fusion partner
T8 chain: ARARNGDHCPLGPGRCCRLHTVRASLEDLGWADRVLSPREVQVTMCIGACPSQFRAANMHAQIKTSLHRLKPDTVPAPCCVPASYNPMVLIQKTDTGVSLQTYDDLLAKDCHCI

T9: GDF15 mutant D289R (finger tip region), albumin fusion (human, UniProt Q99988 195-308)
T9 construct: not shown: albumin fusion partner
T9 chain: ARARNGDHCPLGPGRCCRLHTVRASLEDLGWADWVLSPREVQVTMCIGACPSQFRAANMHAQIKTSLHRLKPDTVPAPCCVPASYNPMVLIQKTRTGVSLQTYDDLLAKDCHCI

T10: GDF15 mutant I285R (knuckle region), albumin fusion (human, UniProt Q99988 195-308)
T10 construct: not shown: albumin fusion partner
T10 chain: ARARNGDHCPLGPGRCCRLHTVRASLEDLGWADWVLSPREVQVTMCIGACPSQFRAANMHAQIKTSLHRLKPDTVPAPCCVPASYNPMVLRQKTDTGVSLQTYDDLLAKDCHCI

T11: GDF15 mutant L294R (knuckle region), albumin fusion (human, UniProt Q99988 195-308)
T11 construct: not shown: albumin fusion partner
T11 chain: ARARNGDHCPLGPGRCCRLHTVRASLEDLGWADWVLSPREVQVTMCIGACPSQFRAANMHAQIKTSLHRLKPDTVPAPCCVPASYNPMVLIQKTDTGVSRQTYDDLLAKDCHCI

T12: GDF15 mutant S231R (knuckle region), albumin fusion (human, UniProt Q99988 195-308)
T12 construct: not shown: albumin fusion partner
T12 chain: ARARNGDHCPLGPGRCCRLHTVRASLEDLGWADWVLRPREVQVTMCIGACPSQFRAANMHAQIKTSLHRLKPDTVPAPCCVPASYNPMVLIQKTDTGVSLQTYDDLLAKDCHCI

T13: Human His-GDF15: HIS-tagged human GDF15 (human, UniProt Q99988 195-308)
T13 construct: not shown: His tag
T13 sequence: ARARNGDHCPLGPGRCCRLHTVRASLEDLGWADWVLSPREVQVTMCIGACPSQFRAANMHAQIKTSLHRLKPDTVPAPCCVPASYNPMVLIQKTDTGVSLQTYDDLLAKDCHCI


What was measured:
[1] = target: T1, GDF15 mutant Q247R (wrist region), …; assay: direct ELISA on coated albumin-fusion GDF15 variant
Protocol: (§1) Antibody epitope was determined by a direct ELISA method with GDF15 mutants. Albumin fusion GDF15 mutants were coated in wells of a 96-well EIA plate. After blocking, serially diluted anti-hGDF15 human antibodies were added to the GDF15-coated wells, followed by incubation at an ambient temperature for a few hours. Antibody binding was detected using an anti-human IgG antibody conjugated with horseradish peroxidase (HRP) and HRP substrate.

[2] = target: T2, GDF15 mutant M253R (wrist region), …; assay: as above
Protocol: as §1

[3] = target: T3, Mouse His-GDF15: HIS-tagged mouse GDF15; assay: Biacore SPR, IgG captured via anti-human Fc, GDF15 in flow
Protocol: (§2) Biacore assay is based on surface plasmon resonance (SPR) and were used to determine the binding affinity of antibodies to GDF15.
(§3) Anti-human Fc capture antibody was immobilized at 0.5 μg/ml on CMS chip in all four flow cells to achieve 8000 to 12,000 resonance units (RU) on the surface. Anti-hGDF15 antibodies were captured at flow rate […], at 0.25 to 0.5 μg/ml on the chip to get about 30 RU in flow cells 2, 3 and 4. GDF15 ligand was flowed at […] over captured antibodies and reference flow cell 1 for 600 and 1200 seconds contact time. Eight doses serially diluted 1 to 2, ranging from 20 to 0.156 nM, were tested. All cycles were repeated twice, regenerated between cycles with 3M MgCl₂ at flow […], 20 seconds contact time. Data were normalized by subtracting reference flow cell results. Data were fit with 1:1 Kinetics model with RI (bulk refractive index) set constant at 0.

[4] = target: T4, Cyno His-GDF15: HIS-tagged cyno GDF15; assay: as above
Protocol: as §2, §3

[5] = target: T5, Rat GDF15 HIS: HIS-tagged rat GDF15; assay: as above
Protocol: as §2, §3

[6] = target: T6, Human GDF15 native: naturally produced …; assay: Biacore SPR (rounded from Table 2, human GDF15 native)
Protocol: as §3

[7] = target: T7, GDF15 mutant S278R (back-of-hand), …; assay: direct ELISA on coated albumin-fusion GDF15 variant
Protocol: as §1

[8] = target: T8, GDF15 mutant W228R (wrist region), …; assay: as above
Protocol: as §1

[9] = target: T9, GDF15 mutant D289R (finger tip region), …; assay: as above
Protocol: as §1

[10] = target: T10, GDF15 mutant I285R (knuckle region), …; assay: direct ELISA on coated albumin-fusion GDF15 mutant
Protocol: as §1

[11] = target: T11, GDF15 mutant L294R (knuckle region), …; assay: direct ELISA on coated albumin-fusion GDF15 mutant
Protocol: as §1

[12] = target: T12, GDF15 mutant S231R (knuckle region), …; assay: direct ELISA: albumin fusion GDF15 mutant coated on the plate, serially diluted antibody, anti-human IgG-HRP detection
Protocol: as §1

[13] = target: T6, Human GDF15 native: naturally produced …; assay: Biacore SPR, IgG captured via anti-human Fc, GDF15 in flow
Protocol: as §2, §3

[14] = target: T13, Human His-GDF15: HIS-tagged human GDF15; assay: as above
Protocol: as §2, §3

[15] = target: T12, GDF15 mutant S231R (knuckle region), …; assay: direct ELISA on coated albumin-fusion GDF15 mutant
Protocol: as §1

[16] = target: T11, GDF15 mutant L294R (knuckle region), …; assay: direct ELISA: albumin fusion GDF15 mutant coated on the plate, serially diluted antibody, anti-human IgG-HRP detection
Protocol: as §1

binding result [1]	binding result [2]	Kd [3]	koff [3]	kon [3]	Kd [4]	koff [4]	kon [4]	Kd [5]	koff [5]	kon [5]	Kd [6]	binding result [7]	binding result [8]	binding result [9]	binding result [10]	Kd [13]	koff [13]	kon [13]	Kd [14]	Binder	other results
binds	binds	0.0457 nM	0.000509 s⁻¹	1.11e+07 M⁻¹ s⁻¹	0.0141 nM	0.000236 s⁻¹	1.67e+07 M⁻¹ s⁻¹	0.0281 nM	0.000456 s⁻¹	1.62e+07 M⁻¹ s⁻¹										ABGDF15-D (antibody, human IgG1, lambda, V domains shown, captured through anti-human Fc in the Biacore assay) VH: EVQLVQSGAEVKKPGESLKISCKGSGYSFTSYWIGWVRQMPGKGLEWMGVIDPDGSYTIYSPSFQGQVTISADKSISTAYLQWSSLKASDTAMYYCARYGRYGTYFDYWGQGTLVTVSS VL: QSVLTQPPSVSGAPGQRVTISCSGSSSNIGVLYVNWYQQLPGTAPKLLIYSNDNRPSGVPDRFSGSKSGTSASLAITGLQAEDEADYYCQSWDSSSNYVFGGGTKLTVLG	
binds	binds	0.0964 nM	0.000584 s⁻¹	6.05e+06 M⁻¹ s⁻¹	0.035 nM	0.00044 s⁻¹	1.26e+07 M⁻¹ s⁻¹	0.0485 nM	0.000538 s⁻¹	1.11e+07 M⁻¹ s⁻¹	0.037 nM	binds	binds	binds	no binding	0.0368 nM	0.000696 s⁻¹	1.89e+07 M⁻¹ s⁻¹	0.0115 nM	ABGDF15-F (antibody, human IgG1, lambda, V domains shown, captured through anti-human Fc in the Biacore assay) VH: EVQLVQSGAEVKKPGESLKISCKGSGYSFTSYWIGWVRQMPGKGLEWMGVIDPSGSYTIYSPSFQGQVTISADKSISTAYLQWSSLKASDTAMYYCARYGRYGTYFDYWGQGTLVTVSS VL: QSVLTQPPSVSGAPGQRVTISCSGSSSNIGVLYVNWYQQLPGTAPKLLIYSNDNRPSGVPDRFSGSKSGTSASLAITGLQAEDEADYYCQSWDSSSNYVFGGGTKLTVLG	binding result [11]: no binding; binding result [12]: binds; koff [14]: 0.00048 s⁻¹; kon [14]: 4.19e+07 M⁻¹ s⁻¹
binds	binds	0.079 nM	0.000535 s⁻¹	6.78e+06 M⁻¹ s⁻¹	0.0303 nM	0.00038 s⁻¹	1.26e+07 M⁻¹ s⁻¹	0.0396 nM	0.000428 s⁻¹	1.08e+07 M⁻¹ s⁻¹										ABGDF15-E (antibody, human IgG1, lambda, V domains shown, captured through anti-human Fc in the Biacore assay) VH: EVQLVQSGAEVKKPGESLKISCKGSGYSFTSYWIGWVRQMPGKGLEWMGVIDPGGSYTIYSPSFQGQVTISADKSISTAYLQWSSLKASDTAMYYCARYGRYGTYFDYWGQGTLVTVSS VL: QSVLTQPPSVSGAPGQRVTISCSGSSSNIGVLYVNWYQQLPGTAPKLLIYSNDNRPSGVPDRFSGSKSGTSASLAITGLQAEDEADYYCQSWDSSSNYVFGGGTKLTVLG	
binds	binds	0.237 nM	0.000626 s⁻¹	2.64e+06 M⁻¹ s⁻¹	0.0836 nM	0.000461 s⁻¹	5.52e+06 M⁻¹ s⁻¹	0.097 nM	0.00052 s⁻¹	5.36e+06 M⁻¹ s⁻¹	0.115 nM	binds	binds	binds	no binding	0.115 nM	0.000389 s⁻¹	3.38e+06 M⁻¹ s⁻¹	0.0614 nM	ABGDF15-B (antibody, human IgG1, lambda, V domains shown, captured through anti-human Fc in the Biacore assay) VH: QVQLVQSGAEVKKPGSSVKVSCKASGGTFRSYAVSWVRQAPGQGLEWMGGIIPIFGTANYAQKFQGRVTITADESTSTAYMELSSLRSEDTAVYYCARGPIIMGYQFGLFDHWGQGTLVTVSS VL: SYELTQPLSVSVALGQTARITCSGDNIGSHIVSWYQQKPGQAPVLVIYDKSNRPSGIPERFSGSNSGNTATLTISRAQAGDEADYYCQTWDSIGSVVFGGGTKLTVLG	binding result [15]: no binding; binding result [16]: binds; koff [14]: 0.00054 s⁻¹; kon [14]: 8.8e+06 M⁻¹ s⁻¹
binds	binds	0.116 nM	0.000505 s⁻¹	4.37e+06 M⁻¹ s⁻¹	0.065 nM	0.000322 s⁻¹	4.96e+06 M⁻¹ s⁻¹	0.0618 nM	0.000483 s⁻¹	7.81e+06 M⁻¹ s⁻¹	0.066 nM	binds	binds	binds	no binding	0.0656 nM	0.000388 s⁻¹	5.92e+06 M⁻¹ s⁻¹	0.0422 nM	ABGDF15-C (antibody, human IgG1, lambda, V domains shown, captured through anti-human Fc in the Biacore assay) VH: QVQLVQSGAEVKKPGSSVKVSCKASGGTFRSYAVSWVRQAPGQGLEWMGGIIPIFGTANYAQKFQGRVTITADESTSTAYMELSSLRSEDTAVYYCARGPIIMGYQFGLFDHWGQGTLVTVSS VL: SYELTQPPSVSVSPGQTASITCSGDNIGSHIVSWYQQKPGQSPVLVIYDKSNRPSGIPERFSGSNSGNTATLTISGTQAMDEADYYCQTWDSIGSVVFGGGTKLTVLG	binding result [15]: no binding; binding result [16]: binds; koff [14]: 0.000468 s⁻¹; kon [14]: 1.11e+07 M⁻¹ s⁻¹
